Measurements taken from patent US20150023989A1, “NEW ANTIBODY DRUG CONJUGATES (ADCS) AND THE USE THEREOF” (SEATTLE GENETICS, INC., priority 2011, published 2015).
Blank lines part the entries; values can stand above or below the binder they belong to.

Molecular target: FGFR2 on the cell surface of human tumour cell lines (human), P21802
Test: cell-based or functional assay

MFM-223, IC50, 72 hr (growth inhibition): 0.0788 nM
SNU-16, IC50, 72 hr (growth inhibition): < 0.03 nM
B1: Example 16 (immunoconjugate of GAL-FR21-mIgG1, coupled to lysine side chains) (antibody)
light: NIVMTQSPKSMSMSVGDRVSITCKASQGVSNDVAWYQKKPGQSPKLLIYSASYRYTGVPDRFTGSGSGTDFTFTISNVQAEDLAVYYCQQHSTTPYTFGGGTKLEIKRTDAAPTVSIFPPSSEQLTSGGASVVCFLNNFYPKDINVKWKIDGSERQNGVLNSWTDQDSKDSTYSMSSTLTLTKDEYERHNSYTCEATHKTSTSPIVKSFNRNEC
heavy: QVQLQQPGAEVVKPGASVKMSCKASGYIFTTYNVHWVKQTPGQGLEWIGSIYPDNGDTSYNQNFKGKATLTADKSSSTAYIQLSSLTSEDSAVYYCARGDFAYWGQGTLVTVSSAKTTPPSVYPLAPGSAAQTNSMVTLGCLVKGYFPEPVTVTWNSGSLSSGVHTFPAVLQSDLYTLSSSVTVPSSTWPSETVTCNVAHPASSTKVDKKIVPRDCGCKPCICTVPEVSSVFIFPPKPKDVLTITLTPKVTCVVVDISKDDPEVQFSWFVDDVEVHTAQTQPREEQFNSTFRSVSELPIMHQDWLNGKEFKCRVNSAAFPAPIEKTISKTKGRPKAPQVYTIPPPKEQMAKDKVSLTCMITDFFPEDITVEWQWNGQPAENYKNTQPIMDTDGSYFVYSKLNVQKSNWEAGNTFTCSVLHEGLHNHHTEKSLSHSPGK
modifications: here or on the partner: auristatin linker-toxophore on side chain NH of lysine residues, positions not stated (drug/mAb ratio 8.7 for the antibody)

MFM-223, IC50, 72 hr (growth inhibition): 0.278 nM
SNU-16, IC50, 72 hr (growth inhibition): 0.0616 nM
B2: Example 17 (immunoconjugate of GAL-FR22-mIgG2a, coupled to lysine side chains) (antibody)
light: DIQMTQSPSSLSASLGGRVTITCKASQDIKNYIAWYQHKPGKSPRLLIHYTSTLQPGVPSRFSGSGSGRDYSFSISNLEPEDIATYYCLQYDDLYMFGGGTKLDIKRTDAAPTVSIFPPSSEQLTSGGASVVCFLNNFYPKDINVKWKIDGSERQNGVLNSWTDQDSKDSTYSMSSTLTLTKDEYERHNSYTCEATHKTSTSPIVKSFNRNEC
heavy: QVQLKQSGPGLVQPSQSLSITCTVSGFSLTSFGVHWVRQSPGKGLEWLGVIWSGGSTDYNADFRSRLSISKDNSKSQIFFKMNSLQPDDTAIYYCANFYYGYDDYVMDYWGQGTSVTVSSAKTTAPSVYPLAPVCGDTTGSSVTLGCLVKGYFPEPVTLTWNSGSLSSGVHTFPAVLQSDLYTLSSSVTVTSSTWPSQSITCNVAHPASSTKVDKKIEPRGPTIKPCPPCKCPAPNLLGGPSVFIFPPKIKDVLMISLSPIVTCVVVDVSEDDPDVQISWFVNNVEVHTAQTQTHREDYNSTLRVVSALPIQHQDWMSGKEFKCKVNNKDLPAPIERTISKPKGSVRAPQVYVLPPPEEEMTKKQVTLTCMVTDFMPEDIYVEWTNNGKTELNYKNTEPVLDSDGSYFMYSKLRVEKKNWVERNSYSCSVVHEGLHNHHTTKSFSRTPGK
modifications: here or on the partner: auristatin linker-toxophore on side chain NH of lysine residues, positions not stated (drug/mAb ratio 8.1 for the antibody)
